Results reported in PMC10786891, “Massively parallel profiling of RNA-targeting CRISPR-Cas13d”.
Numbering of substitutions follows the chain as printed. Numbers in names are those of the source.

T1: EsCas13d, nuclease-dead (Eubacterium siraeum, UniProt B0MS50, R295A;H300A;R849A;H854A)
T1 sequence: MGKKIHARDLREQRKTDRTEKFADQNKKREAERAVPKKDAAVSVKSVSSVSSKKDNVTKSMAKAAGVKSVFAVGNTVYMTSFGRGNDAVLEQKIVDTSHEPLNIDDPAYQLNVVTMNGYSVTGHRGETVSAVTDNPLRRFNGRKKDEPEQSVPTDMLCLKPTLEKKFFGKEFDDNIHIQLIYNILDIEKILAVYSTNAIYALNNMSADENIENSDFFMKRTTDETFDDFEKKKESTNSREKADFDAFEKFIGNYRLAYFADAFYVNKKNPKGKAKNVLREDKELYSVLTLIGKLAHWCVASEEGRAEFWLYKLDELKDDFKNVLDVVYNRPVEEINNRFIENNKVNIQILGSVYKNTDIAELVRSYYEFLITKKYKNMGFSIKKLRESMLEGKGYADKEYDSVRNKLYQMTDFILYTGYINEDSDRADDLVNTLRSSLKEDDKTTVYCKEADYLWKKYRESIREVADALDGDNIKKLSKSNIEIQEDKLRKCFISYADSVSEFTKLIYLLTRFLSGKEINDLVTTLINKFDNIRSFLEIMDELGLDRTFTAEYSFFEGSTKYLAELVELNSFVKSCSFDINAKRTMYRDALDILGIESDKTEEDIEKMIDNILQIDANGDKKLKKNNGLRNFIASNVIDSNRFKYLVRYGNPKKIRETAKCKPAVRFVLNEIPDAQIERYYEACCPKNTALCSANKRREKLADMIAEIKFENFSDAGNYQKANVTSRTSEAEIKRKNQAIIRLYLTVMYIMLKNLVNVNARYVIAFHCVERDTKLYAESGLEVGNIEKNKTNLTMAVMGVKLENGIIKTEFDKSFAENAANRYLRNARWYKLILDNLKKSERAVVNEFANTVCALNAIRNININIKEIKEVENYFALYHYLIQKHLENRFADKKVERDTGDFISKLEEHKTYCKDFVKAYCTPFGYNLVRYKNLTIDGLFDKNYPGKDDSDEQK

B1: target 1 C7G,U11G (mixed)
RNA 1: CACCCGUGCAAAAAUGCAGGGGUCUAAAACUGAGCGGAUAACCUCUCUAUGG
RNA 2: GGGAAUGGAUCCACAUCUACGAAUUCGUACCAUAGAGAGGGUAUGCGCUCACCGAGAUCGGAAGAGCACACGU
B2: target 1 insG 3' of 18,insA 3' of 5 (mixed)
RNA 1: B1 RNA 1
RNA 2: GGGAAUGGAUCCACAUCUACGAAUUCGUACCAUAGGAGAGGUUAUCCGACUCACCGAGAUCGGAAGAGCACACGU
B3: target 1 G12A,A14U (mixed)
RNA 1: B1 RNA 1
RNA 2: B1 RNA 2 with A38U, G40A, G41U, G45C
B4: target 2 MT 5'PFS GGC 3'PFS AUU (mixed)
RNA 1: CACCCGUGCAAAAUUGCAGGGGUCUAAAACCUUCUCCAAAUUGUUUCAUCCU
RNA 2: GGGAAUGGAUCCACAUCUACGAAUUCGGCAGGAUGAAACAAUUUGGAGAAGAUUAGAUCGGAAGAGCACACGU
B5: target 2 MT 5'PFS GAG 3'PFS AGG (mixed)
RNA 1: B4 RNA 1
RNA 2: B4 RNA 2 with G28A, C29G, U53G, U54G
B6: target 2 MT 5'PFS UGC 3'PFS ACU (mixed)
RNA 1: B4 RNA 1
RNA 2: B4 RNA 2 with G27U, U53C
B7: target 2 MT 5'PFS UUU 3'PFS UUA (mixed)
RNA 1: B4 RNA 1
RNA 2: B4 RNA 2 with G27U, G28U, C29U, A52U, U54A
B8: target 2 MT 5'PFS CGC 3'PFS UAG (mixed)
RNA 1: B4 RNA 1
RNA 2: B4 RNA 2 with G27C, A52U, U53A, U54G
B9: target 2 MT 5'PFS GUA 3'PFS CAC (mixed)
RNA 1: B4 RNA 1
RNA 2: B4 RNA 2 with G28U, C29A, A52C, U53A, U54C
B10: target 2 MT 5'PFS CGC 3'PFS UGU (mixed)
RNA 1: B4 RNA 1
RNA 2: B4 RNA 2 with G27C, A52U, U53G
B11: target 2 MT 5'PFS UGU 3'PFS ACA (mixed)
RNA 1: B4 RNA 1
RNA 2: B4 RNA 2 with G27U, C29U, U53C, U54A
B12: target 2 MT 5'PFS GAG 3'PFS UGC (mixed)
RNA 1: B4 RNA 1
RNA 2: B4 RNA 2 with G28A, C29G, A52U, U53G, U54C
B13: target 2 MT 5'PFS UUU 3'PFS UUU (mixed)
RNA 1: B4 RNA 1
RNA 2: B4 RNA 2 with G27U, G28U, C29U, A52U
B14: target 2 MT 5'PFS UGA 3'PFS CGA (mixed)
RNA 1: B4 RNA 1
RNA 2: B4 RNA 2 with G27U, C29A, A52C, U53G, U54A
B15: target 2 MT 5'PFS GAA 3'PFS ACA (mixed)
RNA 1: B4 RNA 1
RNA 2: B4 RNA 2 with G28A, C29A, U53C, U54A
B16: target 2 MT 5'PFS GAG 3'PFS UGU (mixed)
RNA 1: B4 RNA 1
RNA 2: B4 RNA 2 with G28A, C29G, A52U, U53G
B17: target 2 MT 5'PFS AGG 3'PFS CAA (mixed)
RNA 1: B4 RNA 1
RNA 2: B4 RNA 2 with G27A, C29G, A52C, U53A, U54A
B18: target 2 MT 5'PFS GAA 3'PFS ACU (mixed)
RNA 1: B4 RNA 1
RNA 2: B4 RNA 2 with G28A, C29A, U53C
B19: target 2 MT 5'PFS UAC 3'PFS UCC (mixed)
RNA 1: B4 RNA 1
RNA 2: B4 RNA 2 with G27U, G28A, A52U, U53C, U54C
B20: target 2 MT 5'PFS CUA 3'PFS UUU (mixed)
RNA 1: B4 RNA 1
RNA 2: B4 RNA 2 with G27C, G28U, C29A, A52U
B21: target 2 MT 5'PFS UGG 3'PFS CUU (mixed)
RNA 1: B4 RNA 1
RNA 2: B4 RNA 2 with G27U, C29G, A52C
B22: target 2 MT 5'PFS GCC 3'PFS AUU (mixed)
RNA 1: B4 RNA 1
RNA 2: B4 RNA 2 with G28C
B23: target 2 MT 5'PFS GAA 3'PFS ACG (mixed)
RNA 1: B4 RNA 1
RNA 2: B4 RNA 2 with G28A, C29A, U53C, U54G
B24: target 2 MT 5'PFS GGC 3'PFS AUA (mixed)
RNA 1: B4 RNA 1
RNA 2: B4 RNA 2 with U54A
B25: target 2 MT 5'PFS UGA 3'PFS CGC (mixed)
RNA 1: B4 RNA 1
RNA 2: B4 RNA 2 with G27U, C29A, A52C, U53G, U54C
B26: target 2 MT 5'PFS UGC 3'PFS CAA (mixed)
RNA 1: B4 RNA 1
RNA 2: B4 RNA 2 with G27U, A52C, U53A, U54A
B27: target 2 MT 5'PFS UGC 3'PFS CAG (mixed)
RNA 1: B4 RNA 1
RNA 2: B4 RNA 2 with G27U, A52C, U53A, U54G
B28: target 2 MT 5'PFS AAA 3'PFS CUG (mixed)
RNA 1: B4 RNA 1
RNA 2: B4 RNA 2 with G27A, G28A, C29A, A52C, U54G
B29: target 2 MT 5'PFS UAC 3'PFS UCA (mixed)
RNA 1: B4 RNA 1
RNA 2: B4 RNA 2 with G27U, G28A, A52U, U53C, U54A
B30: target 2 MT 5'PFS GAG 3'PFS UGA (mixed)
RNA 1: B4 RNA 1
RNA 2: B4 RNA 2 with G28A, C29G, A52U, U53G, U54A
B31: target 2 MT 5'PFS GGG 3'PFS UGC (mixed)
RNA 1: B4 RNA 1
RNA 2: B4 RNA 2 with C29G, A52U, U53G, U54C
B32: target 2 MT 5'PFS GGC 3'PFS AUG (mixed)
RNA 1: B4 RNA 1
RNA 2: B4 RNA 2 with U54G
B33: target 2 MT 5'PFS UGU 3'PFS ACU (mixed)
RNA 1: B4 RNA 1
RNA 2: B4 RNA 2 with G27U, C29U, U53C
B34: target 2 MT 5'PFS UGG 3'PFS CUA (mixed)
RNA 1: B4 RNA 1
RNA 2: B4 RNA 2 with G27U, C29G, A52C, U54A
B35: target 2 MT 5'PFS GGC 3'PFS AUC (mixed)
RNA 1: B4 RNA 1
RNA 2: B4 RNA 2 with U54C
B36: target 2 MT 5'PFS UGC 3'PFS ACA (mixed)
RNA 1: B4 RNA 1
RNA 2: B4 RNA 2 with G27U, U53C, U54A
B37: target 2 MT 5'PFS GGG 3'PFS UGU (mixed)
RNA 1: B4 RNA 1
RNA 2: B4 RNA 2 with C29G, A52U, U53G
B38: target 2 MT 5'PFS UGC 3'PFS CAU (mixed)
RNA 1: B4 RNA 1
RNA 2: B4 RNA 2 with G27U, A52C, U53A

Target: T1, EsCas13d, nuclease-dead
Test: crRNA (strand 1, pre-loaded); Mg2+; 40 mM Tris-HCl pH 7.5, 150 mM NaCl, 6 mM MgCl2, 1 mM DTT, 0.1% Tween-20, 0.2 mg/ml BSA; 25 C; 10 min per concentration, then washed
Conditions: tags: His6-TwinStrep-SUMO cleaved; N-terminal SNAP kept (SNAP-Surface 488); label: 3' end held by stalled T7 RNA polymerase

| Binder | Kd |
| --- | --- |
| B1 | 24.7 ± 1.5 nM |
| B2 | 36 ± 4 nM |
| B3 | 26.3 ± 1.7 nM |
| B4 | 12.4 ± 1.3 nM |
| B5 | 5.5 ± 0.4 nM |
| B6 | ~49 nM |
| B7 | 9.9 ± 1.3 nM |
| B8 | 3.3 ± 0.5 nM |
| B9 | 9.6 ± 1.2 nM |
| B10 | 5.6 ± 0.5 nM |
| B11 | 14.9 ± 3.5 nM |
| B12 | 7.1 ± 0.7 nM |
| B13 | 20 ± 4 nM |
| B14 | 7.2 ± 0.8 nM |
| B15 | 12 ± 4 nM |
| B16 | 13.5 ± 1.7 nM |
| B17 | 4.1 ± 0.7 nM |
| B18 | 13.3 ± 2.6 nM |
| B19 | 15.1 ± 2.8 nM |

| Binder | Kd |
| --- | --- |
| B20 | 2.61 ± 0.28 nM |
| B21 | 7 ± 0.7 nM |
| B22 | 10.7 ± 1.3 nM |
| B23 | 11 ± 1.3 nM |
| B24 | 10.8 ± 1 nM |
| B25 | 8.5 ± 1.1 nM |
| B26 | 13 ± 2.3 nM |
| B27 | 16.2 ± 2.2 nM |
| B28 | 5.5 ± 1.1 nM |
| B29 | 6.3 ± 1 nM |
| B30 | 9.5 ± 1.8 nM |
| B31 | 12.8 ± 1.4 nM |
| B32 | 15.2 ± 1.7 nM |
| B33 | 28 ± 12 nM |
| B34 | 7 ± 1.3 nM |
| B35 | 13.2 ± 1.1 nM |
| B36 | 17 ± 4 nM |
| B37 | 12.2 ± 0.8 nM |
| B38 | 25 ± 8 nM |
